Broadly, the Kd is the concentration at which binding is half-saturated.

The source of these data is patent publication US20230112035A1 (AstraZeneca / MedImmune, published 2023).

Like-named read-outs stand apart in the source and are kept apart here.

Test [1] has as its target T1, recombinantly produced αvβ8 integrin protein (UniProt P06756 31-992; P26012 43-684).
T1 chain 1: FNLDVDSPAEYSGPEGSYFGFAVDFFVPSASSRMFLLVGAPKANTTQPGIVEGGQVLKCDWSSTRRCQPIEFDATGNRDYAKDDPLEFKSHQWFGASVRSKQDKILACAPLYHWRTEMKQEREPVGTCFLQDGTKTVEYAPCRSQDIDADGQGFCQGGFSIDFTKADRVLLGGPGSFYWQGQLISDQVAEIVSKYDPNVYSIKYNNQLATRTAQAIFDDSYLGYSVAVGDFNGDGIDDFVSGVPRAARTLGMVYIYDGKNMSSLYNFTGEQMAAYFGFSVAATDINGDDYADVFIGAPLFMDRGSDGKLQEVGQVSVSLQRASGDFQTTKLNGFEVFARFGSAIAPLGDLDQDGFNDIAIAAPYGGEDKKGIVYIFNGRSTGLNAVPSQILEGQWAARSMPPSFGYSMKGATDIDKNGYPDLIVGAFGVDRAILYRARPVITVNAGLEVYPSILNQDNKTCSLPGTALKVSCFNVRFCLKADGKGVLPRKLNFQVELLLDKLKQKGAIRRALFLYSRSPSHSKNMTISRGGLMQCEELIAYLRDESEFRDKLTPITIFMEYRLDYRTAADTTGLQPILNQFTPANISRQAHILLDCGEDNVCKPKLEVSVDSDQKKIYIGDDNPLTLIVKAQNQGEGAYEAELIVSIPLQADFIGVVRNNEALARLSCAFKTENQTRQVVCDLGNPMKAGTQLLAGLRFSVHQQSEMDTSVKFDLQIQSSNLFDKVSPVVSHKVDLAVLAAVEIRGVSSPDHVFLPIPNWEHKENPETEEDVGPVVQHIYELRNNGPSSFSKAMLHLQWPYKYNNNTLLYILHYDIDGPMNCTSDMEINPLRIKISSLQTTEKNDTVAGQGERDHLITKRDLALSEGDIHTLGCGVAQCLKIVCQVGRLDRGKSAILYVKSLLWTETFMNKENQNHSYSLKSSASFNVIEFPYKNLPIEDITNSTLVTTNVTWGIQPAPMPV
T1 chain 2: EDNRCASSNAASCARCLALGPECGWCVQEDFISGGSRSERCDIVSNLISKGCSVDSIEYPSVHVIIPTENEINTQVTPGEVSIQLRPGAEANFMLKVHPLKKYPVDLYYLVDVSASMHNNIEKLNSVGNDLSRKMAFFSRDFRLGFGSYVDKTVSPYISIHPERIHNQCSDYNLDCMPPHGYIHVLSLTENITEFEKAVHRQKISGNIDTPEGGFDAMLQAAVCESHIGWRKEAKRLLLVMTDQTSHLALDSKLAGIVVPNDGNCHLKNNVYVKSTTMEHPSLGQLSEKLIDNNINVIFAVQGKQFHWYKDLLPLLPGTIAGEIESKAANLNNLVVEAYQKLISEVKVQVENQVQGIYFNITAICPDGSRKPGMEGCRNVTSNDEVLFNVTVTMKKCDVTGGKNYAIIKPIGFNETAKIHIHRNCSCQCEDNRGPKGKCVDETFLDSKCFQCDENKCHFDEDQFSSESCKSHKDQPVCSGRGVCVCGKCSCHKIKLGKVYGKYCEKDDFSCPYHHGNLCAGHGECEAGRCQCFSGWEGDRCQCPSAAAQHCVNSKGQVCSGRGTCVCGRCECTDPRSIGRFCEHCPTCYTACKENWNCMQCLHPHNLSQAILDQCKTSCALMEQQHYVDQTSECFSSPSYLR
Nature of the test: Biacore. (SPR reads the build-up and loss of mass on a sensor chip optically.)

Test [2] addresses T1, recombinantly produced αvβ8 integrin ….
Test [3] has as its target human αvβ8 integrin expressed on cells and in tissue (human, UniProt P06756 31-1048; P26012 43-769). The experiment in a line: cell-based or functional assay.
For test [4], the target named is T2, recombinantly produced αvβ8 integrin protein (human, UniProt P06756 31-992; P26012 43-684).
T2 construct: Protein coated on ELISA plates and used in Biacore; also called integrin αvβ8
Nature of the test: ELISA screening of position 94 mutants. (In general: In an ELISA, binding on a coated surface is turned into a signal by an enzyme label.)

For test [5], the target named is T1, recombinantly produced αvβ8 integrin …. Nature of the test: Biacore; value is an estimate.

B1: Chi-37E1B5 chimeric anti-αvβ8 integrin antibody (antibody, V domains shown)
VH: EVQLVESGGGLVQPGGSLNLSCAVSGFVFSRYWMSWVRQAPGKGLEWIGEINPDSSTINYTSSLKDKFIISRDNAKNTLYLQMNKVRSEDTALYYCACLITTEDYWGQGTSVTVSS
VL: EIVLTQSPSSMYASLGERVTIPCKASQDINSYLSWFQQKPGKSPKTLIYYANRLVDGVPSRFSGSGSGQDYSLTISSLEYEDMGIYYCLQYDEFPYTFGGGTKLEIK
Consider B1, for which the Kd in test [1] and in test [2] was 0.5 nM throughout.

B2: B5-15 humanized and affinity optimized anti-αvβ8 integrin antibody (antibody, V domains shown)
VH: EVQLVESGGGLVQPGGSLRLSCAVSGFVFSRSWISWVRQAPGKGLEWIGEINPDSSTINYTSSLKDRFTISRDNAKNSLYLQMNSLRAEDTAVYYCAILITTEDYWGQGTTVTVSS
VL: DIQLTQSPSSLSASVGDRVTITCKASQDINKYLSWFQQKPGKAPKSLIYYANRLVDGVPSRFSGSGSGTDFTLTISSLQPEDFATYYCLQYDVFPYTFGGGTKVEIK
Turning to B2, the “SMAD2/3 phosphorylation in kidney lysates of humanized αvβ8 transgenic mice after UUO (ELISA)” value in test [3] was 1.6 fold. Besides, in test [2], the Kd came to 0.166 nM.

B3: MEDI-hu37E1B5-C94I mutant antibody (antibody, V domains shown)
VH: EVQLVESGGGLVQPGGSLRLSCAVSGFVFSRYWMSWVRQAPGKGLEWIGEINPDSSTINYTSSLKDRFTISRDNAKNSLYLQMNSLRAEDTAVYYCAILITTEDYWGQGTTVTVSS
VL: DIQLTQSPSSLSASVGDRVTITCKASQDINSYLSWFQQKPGKAPKSLIYYANRLVDGVPSRFSGSGSGTDFTLTISSLQPEDFATYYCLQYDEFPYTFGGGTKVEIK
notes: IgG; also called humanized anti-αvβ8 integrin antibody C94I
Turning to B3, the “fold reduction in αvβ8 binding affinity (against MEDI-hu37E1B5 with Cys 94)” value in test [4] is approximately 3 fold.

B4: hu37E1B5 anti-αvβ8 integrin antibody (UCSF humanized sequence of WO 2013/026004) (antibody, V domains shown)
VH: EVQLVESGGGLVQPGGSLRLSCAVSGFVFSRYWMSWVRQAPGKGLEWIGEINPDSSTINYTSSLKDRFTISRDNAKNSLYLQMNSLRAEDTAVYYCASLITTEDYWGQGTTVTVSS
VL: EIVLTQSPSSLSLSPGERVTITCKASQDINSYLSWYQQKPGKAPKLLIYYANRLVDGVPARFSGSGSGQDYTLTISSLEPEDFAVYYCLQYDEFPYTFGGGTKLEIK
B4: the Kd in test [5] was approximately 490 nM.
